Measurements published in patent publication US20180142007A1 (AXON NEUROSCIENCE, published 2018).

Key:
Assay in all cases: direct ELISA, tau peptide coated on plate
tau peptide 352-380 = molecular target: T1, tau peptide 352-380 (human)
T1 construct: Synthetic peptide (EZBiolabs), numbered on tau 2N4R
T1 peptide: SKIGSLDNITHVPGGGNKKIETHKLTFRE

tau peptide 256-285 = molecular target: T2, tau peptide 256-285 (human)
T2 construct: Synthetic peptide (EZBiolabs), numbered on tau 2N4R
T2 peptide: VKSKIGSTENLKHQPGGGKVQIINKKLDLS

tau peptide 314-342 = molecular target: T3, tau peptide 314-342 (human)
T3 construct: Synthetic peptide (EZBiolabs), numbered on tau 2N4R
T3 peptide: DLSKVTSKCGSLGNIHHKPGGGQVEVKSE

tau peptide 282-311 = molecular target: T4, tau peptide 282-311 (human)
T4 construct: Synthetic peptide (EZBiolabs), numbered on tau 2N4R; also called peptide derived from MTBRII
T4 peptide: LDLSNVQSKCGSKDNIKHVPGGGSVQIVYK

Measured: binding result

B1: mouse monoclonal antibody DC8E8 (antibody, mouse IgG1)
heavy: QVQLQQSGPELVKPGTSVKMPCKASGYIFTDYVISWVKQRTGQGLEWIGEIFPRSGSTYYNEKFKGKATLTADKSSNTAYMQLSSVTSEDSAVYFCARDYYGTSFAMDYWGQGTSVTVSSAKTTPPSVYPLAPGSAAQTNSMVTLGCLVKGYFPEPVTVTWNSGSLSSGVHTFPAVLQSDLYTLSSSVTVPSSTWPSQTVTCNVAHPASSTKVDKKIVPRDCGCKPCICTVPEVSSVFIFPPKPKDVLTITLTPKVTCVVVDISKDDPEVQFSWFVDDVEVHTAQTKPREEQINSTFRSVSELPIMHQDWLNGKEFKCRVNSAAFPAPIEKTISKTKGRPKAPQVYTIPPPKEQMAKDKVSLTCMITNFFPEDITVEWQWNGQPAENYKNTQPIMDTDGSYFVYSKLNVQKSNWEAGNTFTCSVLHEGLHNHHTEKSLSHSPGK
VL: DIVMSQSPSSLAVSAGEKVTMSCKSSQSLLNSRTRKNYLAWYQQKPGQSPKLLIYWASTRESGVPDRFTGSGSGTDFTLTISSVQAEDLAVYYCKQSFYLRTFGGGTKLDIK
notes: also called murine DC8E8; mouse DC8E8
binds: tau peptide 352-380 | tau peptide 256-285 | tau peptide 314-342

B2: chimeric DC8E8 (isotype not stated where tested) (antibody)
VH: QVQLQQSGPELVKPGTSVKMPCKASGYIFTDYVISWVKQRTGQGLEWIGEIFPRSGSTYYNEKFKGKATLTADKSSNTAYMQLSSVTSEDSAVYFCARDYYGTSFAMDYWGQGTSVTVSS
light: DIVMSQSPSSLAVSAGEKVTMSCKSSQSLLNSRTRKNYLAWYQQKPGQSPKLLIYWASTRESGVPDRFTGSGSGTDFTLTISSVQAEDLAVYYCKQSFYLRTFGGGTKLDIKRTVAAPSVFIFPPSDEQLKSGTASVVCLLNNFYPREAKVQWKVDNALQSGNSQESVTEQDSKDSTYSLSSTLTLSKADYEKHKVYACEVTHQGLSSPVTKSFNRGEC
notes: Whole chimeric antibody with human constant regions; also called chimeric antibody
binds: all assays above
